Measured values: patent publication US20170355953A1 (OSAKA UNIVERSITY, published 2017)

Target: T1, N-terminally TARGET-tagged human afamin (human, UniProt P43652 22-599)
T1 construct: also called hAFM; (TARGET-tagged) afamin; not shown: N-terminal TARGET tag
T1 sequence (looked up): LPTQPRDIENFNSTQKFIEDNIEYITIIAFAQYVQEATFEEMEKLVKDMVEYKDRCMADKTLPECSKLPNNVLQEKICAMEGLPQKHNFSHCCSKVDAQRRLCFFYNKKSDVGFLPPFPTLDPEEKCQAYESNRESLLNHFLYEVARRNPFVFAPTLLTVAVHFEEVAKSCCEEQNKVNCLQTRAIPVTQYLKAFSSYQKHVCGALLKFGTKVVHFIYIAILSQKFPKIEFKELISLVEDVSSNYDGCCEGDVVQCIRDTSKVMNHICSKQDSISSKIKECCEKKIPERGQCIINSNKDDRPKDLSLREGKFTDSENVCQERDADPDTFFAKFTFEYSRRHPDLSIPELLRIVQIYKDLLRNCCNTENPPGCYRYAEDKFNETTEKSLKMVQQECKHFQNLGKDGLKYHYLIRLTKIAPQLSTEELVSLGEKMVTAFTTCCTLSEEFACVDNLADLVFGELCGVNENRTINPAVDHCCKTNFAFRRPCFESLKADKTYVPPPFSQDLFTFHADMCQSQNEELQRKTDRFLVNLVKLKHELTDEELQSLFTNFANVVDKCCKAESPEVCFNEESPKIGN
Experiment: co-immunoprecipitation on P20.1-sepharose (TARGET tag on afamin), western blotting with biotin-modified NZ-1
Method: The transfected cells of each type were cultured for 90 hours in a serum-free culture medium, and the supernatants were separately harvested. To 1 mL of each supernatant, 20 μL of NZ-1-sepharose or P20.1-sepharose was added, and the mixture was rotated end over end for 1 hour. The sepharose was precipitated by centrifugation, and the supernatant was removed. After the sepharose was washed 3 times with 1 mL of TBS, 30 μL of SDS sample buffer was added, and elution was performed under heating at 95° C. for 2 minutes. The eluate was subjected to western blotting using biotin-modified NZ-1.

binding result: binds
B1: N-terminally PA-tagged human Wnt3 (ligand)
chain: GVAMPGAEDDVVGYPIWWSLALGQQYTSLGSQPLLCGSIPGLVPKQLRFCRNYIEIMPSVAEGVKLGIQECQHQFRGRRWNCTTIDDSLAIFGPVLDKATRESAFVHAIASAGVAFAVTRSCAEGTSTICGCDSHHKGPPGEGWKWGGCSEDADFGVLVSREFADARENRPDARSAMNKHNNEAGRTTILDHMHLKCKCHGLSGSCEVKTCWWAQPDFRAIGDFLKDKYDSASEMVVEKHRESRGWVETLRAKYSLFKPPTERDLVYYENSPNFCEPNPETGSFGTRDRTCNVTSHGIDGCDLLCCGRGHNTRTEKRKEKCHCIFHWCCYVSCQECIRIYDVHTCK
